Here are results for 30 molecules from US20110145941A1 (LAY LINE GENOMICS S P A, published 2011).

Residue numbers refer to the chain shown, from its start.

Sequences and labels used below:
B1: BXhVH2VL7 (antibody, human IgG1, V domains shown)
VH: EVQLLESGGGLVQPGGSLRLSCAASGFTFSTYTMSWVRQTPGKRLEWVAYISKGGGSTYYPDTVKGRFTISRDNSKNTLYLQMNSLRAEDTAVYYCAKGAMYGNDFFYPMDYWGQGTTVTVSS
VL: QIVLTQSPATLSLSPGERATLSCSASSSVSYMHWYQQKPGQSPRLLIYTTSNLASGIPSRFSGSGSGTFYTLTISSLEPEDAADYYCHQWSSYPWTFGGGTKLEIK
notes: Human IgG1 constant regions (IgG1 expression vectors); COS-7 supernatant; also called hVH2/hVL7
B2: HuMNACWOv (antibody, V domains shown)
VH: B1 VH with V37A, T40A, R44G, T91S, K98R, T118L
VL: DIVLTQSPSSLSASVGDRVTITCSASSSVSYMHWYQQKPGQAPKLLIYTTSNLASGVPSRFSGSGSGTDYTLTISSLQPEDVATYYCHQWSSYPWTFGGGTKVEIK
notes: Variant of HuMNACWO whose heavy chain CDR3 is replaced with that of muMNACEP; also called hVHWOv/hVLWO; HuVHWOv/HuVLWO
B3: BXhVH3VL6 (antibody, human IgG1, V domains shown)
VH: B1 VH with T40A, K98R
VL: B1 VL with Q1E, R18E
notes: Human IgG1 constant regions (IgG1 expression vectors); COS-7 supernatant; also called hVH3/hVL6
B4: BXhVH5VL5 (antibody, human IgG1, V domains shown)
VH: B1 VH with Q3K, K98R
VL: B1 VL with F69D, G99Q
notes: Human IgG1 constant regions (IgG1 expression vectors); COS-7 supernatant; also called hVH5/hVL5
B5: BXhVH2VL1 (antibody, human IgG1, V domains shown)
VH: B1 VH
VL: B1 VL with Q1E, S42A, S59A, F69D, Y70F, A82F, D84V, G99Q
notes: Human IgG1 constant regions (IgG1 expression vectors); COS-7 supernatant; also called hVH2/hVL1
B6: BXhVH2VL8 (antibody, human IgG1, V domains shown)
VH: B1 VH
VL: B1 VL with R18E, P39S, Q41T
notes: Human IgG1 constant regions (IgG1 expression vectors); COS-7 supernatant; also called hVH2/hVL8
B7: BXhVH3VL5 (antibody, human IgG1, V domains shown)
VH: B1 VH with T40A, K98R
VL: B1 VL with F69D, G99Q
notes: Human IgG1 constant regions (IgG1 expression vectors); COS-7 supernatant; also called hVH3/hVL5
B8: BXhVH3VL1 (antibody, human IgG1, V domains shown)
VH: B1 VH with T40A, K98R
VL: B1 VL with Q1E, S42A, S59A, F69D, Y70F, A82F, D84V, G99Q
notes: Human IgG1 constant regions (IgG1 expression vectors); COS-7 supernatant; also called hVH3/hVL1
B9: BXhVH2VL2 (antibody, human IgG1, V domains shown)
VH: B1 VH
VL: B1 VL with Q1E, F69D, Y70F, G99Q
notes: Human IgG1 constant regions (IgG1 expression vectors); COS-7 supernatant; also called hVH2/hVL2
B10: BXhVH3VL8 (antibody, human IgG1, V domains shown)
VH: B1 VH with T40A, K98R
VL: B1 VL with R18E, P39S, Q41T
notes: Human IgG1 constant regions (IgG1 expression vectors); COS-7 supernatant; also called hVH3/hVL8
B11: BXhVH1VL3 (antibody, human IgG1, V domains shown)
VH: B1 VH with Q3K, R44G
VL: B1 VL with A82F, D84V
notes: Human IgG1 constant regions (IgG1 expression vectors); COS-7 supernatant; also called hVH1/hVL3
B12: BXhVH1VL5 (antibody, human IgG1, V domains shown)
VH: B1 VH with Q3K, R44G
VL: B1 VL with F69D, G99Q
notes: Human IgG1 constant regions (IgG1 expression vectors); COS-7 supernatant; also called hVH1/hVL5
B13: BXhVH1VL2 (antibody, human IgG1, V domains shown)
VH: B1 VH with Q3K, R44G
VL: B1 VL with Q1E, F69D, Y70F, G99Q
notes: Human IgG1 constant regions (IgG1 expression vectors); COS-7 supernatant; also called hVH1/hVL2
B14: BXhVH5VL6 (antibody, human IgG1, V domains shown)
VH: B1 VH with Q3K, K98R
VL: B1 VL with Q1E, R18E
notes: Human IgG1 constant regions (IgG1 expression vectors); COS-7 supernatant; also called hVH5/hVL6
B15: BXhVH1VL1 (antibody, human IgG1, V domains shown)
VH: B1 VH with Q3K, R44G
VL: B1 VL with Q1E, S42A, S59A, F69D, Y70F, A82F, D84V, G99Q
notes: Human IgG1 constant regions (IgG1 expression vectors); COS-7 supernatant; also called hVH1/hVL1
B16: BXhVH5VL2 (antibody, human IgG1, V domains shown)
VH: B1 VH with Q3K, K98R
VL: B1 VL with Q1E, F69D, Y70F, G99Q
notes: Human IgG1 constant regions (IgG1 expression vectors); COS-7 supernatant; also called hVH5/hVL2
B17: BXhVH2VL3 (antibody, human IgG1, V domains shown)
VH: B1 VH
VL: B1 VL with A82F, D84V
notes: Human IgG1 constant regions (IgG1 expression vectors); COS-7 supernatant; also called hVH2/hVL3
B18: BXhVH5VL7 (antibody, human IgG1, V domains shown)
VH: B1 VH with Q3K, K98R
VL: B1 VL
notes: Human IgG1 constant regions (IgG1 expression vectors); COS-7 supernatant; also called hVH5/hVL7
B19: BXhVH3VL7 (antibody, human IgG1, V domains shown)
VH: B1 VH with T40A, K98R
VL: B1 VL
notes: Human IgG1 constant regions (IgG1 expression vectors); COS-7 supernatant; also called hVH3/hVL7
B20: BXhVH2VL4 (antibody, human IgG1, V domains shown)
VH: B1 VH
VL: B1 VL with F69D, Y70F
notes: Human IgG1 constant regions (IgG1 expression vectors); COS-7 supernatant; also called hVH2/hVL4
B21: BXhVH1VL4 (antibody, human IgG1, V domains shown)
VH: B1 VH with Q3K, R44G
VL: B1 VL with F69D, Y70F
notes: Human IgG1 constant regions (IgG1 expression vectors); COS-7 supernatant; also called hVH1/hVL4
B22: BXhVH1VL6 (antibody, human IgG1, V domains shown)
VH: B1 VH with Q3K, R44G
VL: B1 VL with Q1E, R18E
notes: Human IgG1 constant regions (IgG1 expression vectors); COS-7 supernatant; also called hVH1/hVL6
B23: BXhVH2VL6 (antibody, human IgG1, V domains shown)
VH: B1 VH
VL: B1 VL with Q1E, R18E
notes: Human IgG1 constant regions (IgG1 expression vectors); COS-7 supernatant; also called hVH2/hVL6
B24: BXhVH3VL2 (antibody, human IgG1, V domains shown)
VH: B1 VH with T40A, K98R
VL: B1 VL with Q1E, F69D, Y70F, G99Q
notes: Human IgG1 constant regions (IgG1 expression vectors); COS-7 supernatant; also called hVH3/hVL2
B25: BXhVH2VL5 (antibody, human IgG1, V domains shown)
VH: B1 VH
VL: B1 VL with F69D, G99Q
notes: Human IgG1 constant regions (IgG1 expression vectors); COS-7 supernatant; also called hVH2/hVL5
B26: BXhVH1VL7 (antibody, human IgG1, V domains shown)
VH: B1 VH with Q3K, R44G
VL: B1 VL
notes: Human IgG1 constant regions (IgG1 expression vectors); COS-7 supernatant; also called hVH1/hVL7
B27: BXhVH1VL8 (antibody, human IgG1, V domains shown)
VH: B1 VH with Q3K, R44G
VL: B1 VL with R18E, P39S, Q41T
notes: Human IgG1 constant regions (IgG1 expression vectors); COS-7 supernatant; also called hVH1/hVL8
B28: BXhVH5VL4 (antibody, human IgG1, V domains shown)
VH: B1 VH with Q3K, K98R
VL: B1 VL with F69D, Y70F
notes: Human IgG1 constant regions (IgG1 expression vectors); COS-7 supernatant; also called hVH5/hVL4
B29: BXhVH3VL4 (antibody, human IgG1, V domains shown)
VH: B1 VH with T40A, K98R
VL: B1 VL with F69D, Y70F
notes: Human IgG1 constant regions (IgG1 expression vectors); COS-7 supernatant; also called hVH3/hVL4
B30: muMNACEP (antibody, V domains shown)
VH: EVKLMESGGGLVQPGGSLKLSCAASGFTFSTYTMSWARQTPEKRLEWVAYISKGGGSTYYPDTVKGRFTISRDNAKNTLYLQMSSLKSEDTALYYCARGAMYGNDFFYPMDYWGQQTSVTVSS
VL: DIVLSQSPAIMSASLGEEITLTCSASSSVSYMHWYQQKSGTSPKLLITTTSNLASGVPSRFSGSGSGTFYSLTISSVEAEDAADYYCHQWSSYPWTFGGGTKLEIK
notes: Murine monoclonal antibody as disclosed in EP1181318; also called murine antibody MNAC13; MNAC13

The first assay deals with T1, human TrkA receptor on the cell surface (human, UniProt P04629 33-796).
T1 construct: whole, on cells; PC12-hTrkA: high density; also called hTrkA; huTrkA
T1 sequence (P04629 33-796): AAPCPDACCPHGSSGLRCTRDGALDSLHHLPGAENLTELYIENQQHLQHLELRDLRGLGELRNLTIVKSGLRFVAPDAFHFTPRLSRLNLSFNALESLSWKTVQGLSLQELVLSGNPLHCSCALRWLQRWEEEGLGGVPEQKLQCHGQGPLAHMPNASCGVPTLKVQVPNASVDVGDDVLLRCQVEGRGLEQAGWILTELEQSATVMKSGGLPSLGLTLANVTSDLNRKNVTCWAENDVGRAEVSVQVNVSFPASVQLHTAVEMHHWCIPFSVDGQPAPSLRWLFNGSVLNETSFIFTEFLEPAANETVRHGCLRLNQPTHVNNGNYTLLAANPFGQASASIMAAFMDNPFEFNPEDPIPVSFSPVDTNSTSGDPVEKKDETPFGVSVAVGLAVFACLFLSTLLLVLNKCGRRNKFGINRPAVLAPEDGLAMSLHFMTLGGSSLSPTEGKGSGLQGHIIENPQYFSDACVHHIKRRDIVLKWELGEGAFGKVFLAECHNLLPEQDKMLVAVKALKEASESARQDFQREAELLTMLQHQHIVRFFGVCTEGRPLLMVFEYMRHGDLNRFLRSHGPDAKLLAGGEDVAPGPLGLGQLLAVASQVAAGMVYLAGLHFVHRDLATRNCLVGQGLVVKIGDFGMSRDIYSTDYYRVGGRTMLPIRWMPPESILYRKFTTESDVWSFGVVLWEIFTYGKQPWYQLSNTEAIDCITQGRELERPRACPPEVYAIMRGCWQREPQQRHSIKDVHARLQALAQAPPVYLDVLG
The experiment in a line: flow cytometry on TF-1 cells, 4 µg/ml. On the set-up: Geo Mean Fluorescence: reference not given here. Background: In flow cytometry, cells or beads pass a laser one at a time.
In the case of B1, the “Fold Increase” value is 1.9 fold and the “Geo Mean Fluorescence” value stood at 6.5.
The like results for B2 were, in that order, 2.6 fold and 8.9.
The like results for B3 were, in that order, 1.8 fold and 6.4.
The like results for B4 were, in that order, 2.4 fold and 8.3.
For B5, the “Fold Increase” value came to 2.6 fold and the “Geo Mean Fluorescence” value amounted to 9.2.
For B6 the same measures were 1.9 fold and 6.5.
As for B7, the “Fold Increase” value turned out to be 2 fold and the “Geo Mean Fluorescence” value was found to be 6.9.
For the molecule B8, the “Fold Increase” value stood at 2.5 fold and the “Geo Mean Fluorescence” value was 8.6.
The like results for B9 were, in that order, 1.8 fold and 6.4.
For B10 the same measures were 1.9 fold and 6.5.
For B11 the same measures were 1.8 fold and 6.1.
Consider B12, for which the “Fold Increase” value is 1.3 fold and the “Geo Mean Fluorescence” value came to 4.5.
The like results for B13 were, in that order, 1.3 fold and 4.6.
For B14 the same measures were 2.6 fold and 9.1.
For B15 the same measures were 1.7 fold and 5.7.
Turning to B16, the “Fold Increase” value was 2.5 fold and the “Geo Mean Fluorescence” value is 8.6.
In the case of B17, the “Fold Increase” value worked out at 3.1 fold and the “Geo Mean Fluorescence” value was found to be 10.8.
Consider B18, for which the “Fold Increase” value came out at 2.5 fold and the “Geo Mean Fluorescence” value turned out to be 8.6.
The like results for B19 were, in that order, 2 fold and 7.1.
Regarding B20, the “Fold Increase” value is 1.8 fold and the “Geo Mean Fluorescence” value was found to be 6.1.
The like results for B21 were, in that order, 1.5 fold and 5.1.
With B22, the “Fold Increase” value came to 1.4 fold and the “Geo Mean Fluorescence” value was found to be 4.9.
Consider B23, for which the “Fold Increase” value was 1.8 fold and the “Geo Mean Fluorescence” value was 6.4.
For B24 the same measures were 2 fold and 7.1.
The like results for B25 were, in that order, 1.8 fold and 6.4.
The like results for B26 were, in that order, 1.5 fold and 5.1.
For B27, the “Fold Increase” value came out at 1.5 fold and the “Geo Mean Fluorescence” value worked out at 5.2.
The like results for B28 were, in that order, 2.6 fold and 9.1.
Regarding B29, the “Fold Increase” value stood at 2 fold and the “Geo Mean Fluorescence” value was found to be 7.1.

For a further assay, the target named is T2, TrkA-IgG (UniProt P04629 33-423, limits assumed).
T2 construct: also called specific antigen TrkA-IgG; not shown: IgG part of the fusion
T2 sequence (P04629 33-423 limits assumed): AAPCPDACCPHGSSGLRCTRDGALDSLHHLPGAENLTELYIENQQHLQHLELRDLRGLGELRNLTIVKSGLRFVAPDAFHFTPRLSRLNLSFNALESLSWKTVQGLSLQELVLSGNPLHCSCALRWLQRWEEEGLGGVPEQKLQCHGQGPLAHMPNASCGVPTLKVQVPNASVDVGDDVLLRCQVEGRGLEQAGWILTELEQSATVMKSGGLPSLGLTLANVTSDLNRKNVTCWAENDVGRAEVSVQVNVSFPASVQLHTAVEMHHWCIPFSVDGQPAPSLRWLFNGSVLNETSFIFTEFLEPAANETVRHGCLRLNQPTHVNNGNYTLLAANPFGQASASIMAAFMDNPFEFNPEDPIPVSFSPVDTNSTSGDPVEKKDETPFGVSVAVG
The experiment in a line: SPR (BIACORE 2000), TrkA-IgG immobilised on CM-5 chip, 'separated 1:1' fit. The protocol: Surface plasmon resonance analysis was used to measure the association and dissociation rate constants for binding kinetics of the different antibodies (murine, chimeric, 5 humanised variants) towards TrkA-IgG using BIACORE 2000 (Biacore AB, Uppsala, Sweden). TrkA-IgG was immobilised on a CM-5 sensor chip according to manufacturer's conditions, in a way to achieve an immobilization density of 1100 RU. Each antibody sample was analyzed in antibody concentration ranges of 20-0.63 μg/ml. Calculations from the sensograms were performed by using the BIA evaluation version 3 (1999) software.
Analysis of the individual sets of sensograms was performed with the BIA evaluation version 3 (1999) software. Among the different models tested to fit the kinetics data, the best fitting was obtained with the “separated 1:1” algorithm. In this model, only a defined range of the early association and dissociation curves was used for the calculation.
Background: Surface plasmon resonance follows binding to a sensor surface in real time, without labels.
A word on the Kd: it is the concentration at which binding is half-saturated. The koff is a measure of how fast the partners let go of each other. In general, kon refers to the second-order rate constant of association. Molecule B2 gave a Kd of 2.48 nM, a koff of 0.00386 s⁻¹ and a kon of 1.62e+06 M⁻¹ s⁻¹.
Molecule B30 yielded a Kd of 0.25 nM, a koff of 0.000167 s⁻¹ and a kon of 850000 M⁻¹ s⁻¹.

The target in the next assay is T1, human TrkA receptor on the cell surface. The experiment in a line: cell-based or functional assay.
On to B30, for which the “Proliferation assay on TF1 cells IC50 (µg/ml), Mean” value turned out to be 0.54 µg/mL.
